Test results published in paper PMC5114558, “Reader domain specificity and lysine demethylase-4 family function” (Nature Communications, 2016).

Columns and labels:
Assay in all cases: fluorescence polarisation; fluorescein-labelled histone peptide 3 nM, KDM4 DTD titrated 0.1-100 μM; 30 mM HEPES, 150 mM NaCl pH 7.4, 0.01% Triton X-100
[1] = target: H3K23me3R26me2a peptide, fluorescein-labelled
[2] = target: H3T22phK23me3 peptide, fluorescein-labelled
[3] = target: H3K23me1 peptide (monomethylated H3K23), fluorescein-labelled
[4] = target: H3K23me3R26A peptide, fluorescein-labelled
[5] = target: H3 (17-32) K23me3 peptide, fluorescein-labelled (UniProt P68431)
[6] = target: H3K23me2 peptide (dimethylated H3K23), fluorescein-labelled

Substance	Kd [1] [µM]	Kd [2] [µM]	Kd [3] [µM]	Kd [4] [µM]	Kd [5] [µM]	Kd [6] [µM]
KDM4A double tudor domain (KDM4A-DTD), HaloTag-tagged, wild type (from UniProt O75164 895-1011) (domain or fragment)	8.7	83.7	98.5	32.3	2.2	9.06
KDM4B double tudor domain (KDM4B-DTD), HaloTag-tagged, wild type (from UniProt O94953 917-1031) (domain or fragment)	–	–	–	–	10.3	–
